We go through one substance from US20050233406A1, “Methods for high resolution identification of solvent accessible amide hydrogens in polypeptides and for characterization of polypeptide structure” (priority 2002, published 2005).

The experiment has as its target T1, RIIα isoform of PKA (regulatory subunit) (Mus musculus, UniProt P12367).
T1 construct: made in house; host or cells: E. coli BL21 (DE3)
Put plainly: Surface plasmon resonance binding of D-AKAP2 to immobilized RIIα (BIAcore 3000). As to conditions: 1:1 binding model, average of three replicates, read-out: Kd (dissociation constant). Set-up: species or system murine. As for the experimental part:
FIG. 2 depicts the binding of D-AKAP2 to the regulatory subunit (RIIα) of PKA as determined using surface plasmon resonance. A total of 450 response units of RIIα were immobilized to a cAMP sensor chip. Serial dilutions (250-2 nM) of D-AKAP2 were injected over the surface. Both the one rate (kon) and the off rate (koff) were fit globally using the concentration series. A 1:1 binding model fits the data well and is illustrated as a bold line.
Binding of RIIa to D-AKAP2 was performed using a BIAcore 3000 (BIAcore). The regulatory subunit of PKA was immobilized to a CM5 chip (BIAcore) as described (Herberg et al., J. Mol. Biol., 298:329-339, 2000). […]
To evaluate the functional properties of this protein, binding of D-AKAP2 to the RIIα isoform of PKA was examined using surface plasmon resonance (Herberg et al., J. Mol. Biol. 298:329-339, 2000). […] D-AKAP2 was injected over the surface at varying concentrations and the affinity determined by fitting the curves to a 1:1 binding model (see FIG. 2).
In general terms: Surface plasmon resonance follows binding to a sensor surface in real time, without labels.

T1 sequence (P12367 whole entry, canonical isoform): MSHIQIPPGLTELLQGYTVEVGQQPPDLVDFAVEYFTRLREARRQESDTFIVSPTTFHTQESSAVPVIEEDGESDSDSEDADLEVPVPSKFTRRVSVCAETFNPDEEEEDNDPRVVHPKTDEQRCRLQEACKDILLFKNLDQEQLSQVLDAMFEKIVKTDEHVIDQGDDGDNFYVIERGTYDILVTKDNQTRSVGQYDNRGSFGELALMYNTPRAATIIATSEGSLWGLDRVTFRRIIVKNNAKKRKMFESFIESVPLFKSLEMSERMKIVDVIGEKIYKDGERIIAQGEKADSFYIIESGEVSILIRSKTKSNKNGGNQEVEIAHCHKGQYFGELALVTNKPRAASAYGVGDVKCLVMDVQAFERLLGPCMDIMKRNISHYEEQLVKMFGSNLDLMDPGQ

Take “AKB domain alone: PKA kinase binding (AKB) domain of D-AKAP2 (residues 336-360), tested alone without the rest of the protein (DPNCFVLAQAVVFSAMEQEHFSEFL; UniProt O88845 336-360, looked up, fragment)”: the Kd was determined as 2 nM.

What is called Kd is the free concentration of one partner at which half of the binding sites on the other are occupied at equilibrium, for simple one-to-one binding.
